Measurements: patent US20190233528A1 (published 2019)

Columns and labels:
[1] = target: T1, human CD70 expressed on parental (WT) Jurkat cells (human, UniProt P32970 1-193); assay: cell-based or functional assay
T1 sequence: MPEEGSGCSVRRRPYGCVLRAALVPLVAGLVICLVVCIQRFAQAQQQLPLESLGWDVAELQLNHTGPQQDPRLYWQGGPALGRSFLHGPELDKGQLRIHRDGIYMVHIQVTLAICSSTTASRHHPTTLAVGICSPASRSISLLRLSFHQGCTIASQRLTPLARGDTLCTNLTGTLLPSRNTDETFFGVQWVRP

[2] = target: T2, recombinant biotinylated human CD70 protein (human) (UniProt P32970); assay: flow cytometry: CAR-transduced Jurkat cells incubated with recombinant biotinylated human CD70, streptavidin-PE; percent of cells binding
T2 sequence (chain, biotinylated (site not stated)): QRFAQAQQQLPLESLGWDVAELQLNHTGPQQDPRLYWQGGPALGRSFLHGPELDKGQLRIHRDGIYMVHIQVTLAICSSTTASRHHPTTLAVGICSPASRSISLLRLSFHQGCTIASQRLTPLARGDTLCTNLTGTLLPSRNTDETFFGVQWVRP

[3] = target: T3, recombinant human CD70 (AviTag, polyhistidine tag and chicken tenascin trimerization domain fused to the … (chicken; human, UniProt P10039 110-139, limits assumed); assay: SPR (Biacore 8K, 37 C): CD70 captured via anti-AviTag antibody on C1 chip, scFv-Fc as analyte; 1:1 steady state affinity fit (SS KD)
T3 construct: domain: trimerization domain; Expressed in Expi293, purified by IMAC and SEC; Copies 3 is inferred from the trimerization domain; not shown: AviTag; polyhistidine tag
T3 sequence: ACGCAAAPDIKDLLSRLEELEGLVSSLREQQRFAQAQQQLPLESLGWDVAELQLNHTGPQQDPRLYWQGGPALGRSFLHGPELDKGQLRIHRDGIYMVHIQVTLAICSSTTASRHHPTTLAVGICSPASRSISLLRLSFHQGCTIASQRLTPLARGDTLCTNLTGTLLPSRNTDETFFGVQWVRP
Method: The antibody binding kinetics were determined by surface plasmon resonance (Biacore 8K, GE Healthcare Bio-Sciences, Pittsburgh Pa.) at 37° C. in HBS-T+ (0.01 M HEPES pH 7.4, 0.15 M NaCl, 0.05% v/v Tween20, 1 mg/mL BSA). Recombinant human CD70 diluted in HBS-T+ was captured on a C1 chip immobilized with an anti-AviTag™ antibody. Purified anti-CD70 scFv-Fc fusions were serially diluted into HBS-T+, injected at 30 uL/min for 2-4 min, dissociation monitored for 10 min then the surface regenerated with 75 mM phosphoric acid between injections. Buffer cycles were collected for each anti-CD70 scFv-Fc fusion for double-referencing purposes (double-referencing as described in Myszka, D. G. Improving biosensor analysis. J. Mol. Recognit. 12, 279-284 (1999)). Kinetic association rates (kₒₙ) and dissociation rates (koff) were obtained simultaneously by fitting the double-referenced sensorgrams globally to a 1:1 Langmuir with mass transport model using Biacore 8K Evaluation Software (GE Healthcare Bio-Sciences, Pittsburgh Pa.) then used to calculate an equilibrium dissociation constant (KD) from the kinetic rate constants (KD=koff/kₒₙ). The data was fit to a 1:1 steady state affinity model using Biacore 8K Evaluation Software to determine a steady state equilibrium dissociation constant (SS KD) as needed.

[4] = target: T4, recombinant biotinylated human CD70 protein (human, UniProt P32970 39-193, biotinylated (site not stated)); assay: flow cytometry: CAR-transduced Jurkat cells incubated with recombinant biotinylated human CD70, streptavidin-PE; percent of cells binding
T4 construct: also called recombinant biotinylated hCD70 protein
T4 sequence: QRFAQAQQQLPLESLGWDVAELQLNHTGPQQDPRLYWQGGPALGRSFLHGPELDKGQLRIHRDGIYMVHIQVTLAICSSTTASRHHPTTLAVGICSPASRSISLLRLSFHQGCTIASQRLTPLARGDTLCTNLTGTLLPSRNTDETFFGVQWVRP
Method: On Day 5, transduced cells were stained with human anti-CD69 antibody conjugated to PE-Cy7 and acquired on a flow cytometer to obtain percentage of CD69+ population for each CAR. […] Activation ratios (WT activation/KO activation) and protein binding were used to rank CARs.
Activation ratio and protein binding of hybridoma CARs were determined in the Jurkat screen and used for in vitro characterization of CARs. Activation ratio was determined by calculating the ratio of the percentage of CD69 expression on WT Jurkat cells transduced with CD70 CAR (WT) to that on CD70 knockout Jurkat cells transduced with CD70 CAR (KO). A higher activation ratio indicates target-dependent activation. […] Protein binding values indicate the percentage of CD3+ CAR T cells that bind to human CD70 protein.

Binder	Activation ratio (WT/KO) [1]	Protein binding (%) [2]	Kd [3]	Protein binding (%) [4]
72C2 CD70-specific CAR (other) QVQLVQSGAEVKKPGSSVKVSCEASGGTFITYAISWVRQAPGQGLEWMGGIIPFFGTANYAQKFQGRVTITADKSTSTASMELRSLRSEDTAMYYCAQWELFFFDFWGQGTPVTVSSGGGGSGGGGSGGGGSGGGGSEIVMTQSPDTLSVSPGERAILSCRASQSVSSNLAWYQQKPGQAPRLLIYSASTRASGIPARFSGSGSGTEFTLSISSLQSEDFAVYYCQQYDNWPPLTFGGGTKVEIKTTTPAPRPPTPAPTIASQPLSLRPEACRPAAGGAVHTRGLDFACDIYIWAPLAGTCGVLLLSLVITLYCKRGRKKLLYIFKQPFMRPVQTTQEEDGCSCRFPEEEEGGCELRVKFSRSADAPAYQQGQNQLYNELNLGRREEYDVLDKRRGRDPEMGGKPRRKNPQEGLYNELQKDKMAEAYSEIGMKGERRRGKGHDGLYQGLSTATKDTYDALHMQALPPR	6.18	0.09%	–	–
42C3 CD70-specific CAR (other) EVQLVESGGGLVQPGGSLRLSCAASGFTFRNSWMSWVRQAPGKGLEWVANIKRDGSEKYYVDSVKGRFTISRDNAKNSLYLQMNSLRAEDTAVYYCARDQTGSFDYWGQGTLVTVSSGGGGSGGGGSGGGGSGGGGSDVVMTQSPLSLPVTLGQPASISCRSSQSLVYSDENTYLNWFQQRPGQSLRRLIYQVSNRDSGVPDRFSGSGSGTDFTLKISRVEAEDVGVYFCMQGTYWPPTFGGGTKVEIKTTTPAPRPPTPAPTIASQPLSLRPEACRPAAGGAVHTRGLDFACDIYIWAPLAGTCGVLLLSLVITLYCKRGRKKLLYIFKQPFMRPVQTTQEEDGCSCRFPEEEEGGCELRVKFSRSADAPAYQQGQNQLYNELNLGRREEYDVLDKRRGRDPEMGGKPRRKNPQEGLYNELQKDKMAEAYSEIGMKGERRRGKGHDGLYQGLSTATKDTYDALHMQALPPR	5.25	1.48%	–	–
P02B10 anti-CD70 scFv-Fc fusion (Fc fusion, scFv-Fc expressed in Expi293; not shown: part of the hinge and Fc from a modified human IgG2) EVQLLESGGGLVQPGGSLRLSCAASGFAFSNYAMSWVRQAPGKGLEWVSAIRGGGGSTYYADSVKGRFTISRDNSKNTLYLQMNSLRAEDTAVYYCARDFISGTWYPDYWGQGTLVTVSSGGGGSGGGGSGGGGSGGGGSELQSVLTQPPSASGTPGQRVTISCSGSSSNIGSNYVYWYQQLPGTAPKLLIYRNNQRPSGVPDRFSGSKSGTSASLAISGLRSEDEADYYCAAWDDSLSGVVFGGGTKLTVL	–	–	355 nM	–
64F9 CD70-specific CAR (other, Chimeric antigen receptor on transduced Jurkat cells; the signal peptide is left out) EVQLLESGGGLVQPGESLRLSCEVSGFTFTSYAMSWVRQVPGKGLEWVSIISGVAFTTYYADSVKGRFTISRDHSKNTLYLQMNGLRAEDTAVYYCVKVDGEVYWGQGTLVTVSSGGGGSGGGGSGGGGSGGGGSDIQMTQSPSSLSASVGDRVTITCQASQDISNYLNWYQQKPGKAPKILIYGASNLETGVPSRFSGSGSGTDFTFAISSLQPEDVATYYCQQYDNFPITFGQGTRLEIKTTTPAPRPPTPAPTIASQPLSLRPEACRPAAGGAVHTRGLDFACDIYIWAPLAGTCGVLLLSLVITLYCKRGRKKLLYIFKQPFMRPVQTTQEEDGCSCRFPEEEEGGCELRVKFSRSADAPAYQQGQNQLYNELNLGRREEYDVLDKRRGRDPEMGGKPRRKNPQEGLYNELQKDKMAEAYSEIGMKGERRRGKGHDGLYQGLSTATKDTYDALHMQALPPR	3.89	–	–	6.24%
4F11 CD70-specific CAR (other, Chimeric antigen receptor on transduced Jurkat cells; the signal peptide is left out) QVTLKESGPVLVKPTETLTLTCTVSGFSLSNARMGVTWIRQPPGKALEWLAHIFSNDEKSYSTSLKSRLTISKDTSKTQVVLTMTNMDPVDTATYYCARIRDYYDISSYYDYWGQGTLVSVSSGGGGSGGGGSGGGGSGGGGSDIQMTQSPSAMSASVGDRVTITCRASQDISNYLAWFQQKPGKVPKRLIYAASSLQSGVPSRFSGSGSGTEFTLTISSLLPEDFATYYCLQLNSFPFTFGGGTKVEINTTTPAPRPPTPAPTIASQPLSLRPEACRPAAGGAVHTRGLDFACDIYIWAPLAGTCGVLLLSLVITLYCKRGRKKLLYIFKQPFMRPVQTTQEEDGCSCRFPEEEEGGCELRVKFSRSADAPAYQQGQNQLYNELNLGRREEYDVLDKRRGRDPEMGGKPRRKNPQEGLYNELQKDKMAEAYSEIGMKGERRRGKGHDGLYQGLSTATKDTYDALHMQALPPR	11.9	–	–	47.1%
P07D03 anti-CD70 scFv-Fc fusion (Fc fusion, scFv-Fc expressed in Expi293; not shown: part of the hinge and Fc from a modified human IgG2) EVQLVQSGAEVKKPGESLKISCKGSGYRFTSYWIGWVRQMPGKGLEWMGSIYPDDSDTRYSPSFQGQVTISADKSISTAYLQWSSLKASDTAMYYCASSTVDYPGYSYFDYWGQGTLVTVSSGGGGSGGGGSGGGGSGGGGSELQSVLTQPPSASGTPGQRVTISCSGSRSNIGSNYVYWYQQLPGTAPKLLIYRNNQRPSGVPDRFSGSKSGTSASLAISGLRSEDEADYYCASWDGSLSAVVFGTGTKLTVL	–	–	1070 nM	–
45F11 CD70-specific CAR (other) QVQLRGSGPGLVKPSETLSLTCTVSDDSISVYYWSWIRQPAGKGLEWIGRVYSSGNINYNPSLESRVTMSVDTSKSRFSLNLSSVTAADTAVYYCARGLDAFDIWGQGTMVTVSSGGGGSGGGGSGGGGSGGGGSEIVMTQSPATLSMSLGERATLSCRASQSVSSSLAWYQQKPGQAPRLLIYGASTRATGIPARFGGSGSGTEFTLTISSLQSEDFAVYYCQQYINWPHFGGGTKVEIKTTTPAPRPPTPAPTIASQPLSLRPEACRPAAGGAVHTRGLDFACDIYIWAPLAGTCGVLLLSLVITLYCKRGRKKLLYIFKQPFMRPVQTTQEEDGCSCRFPEEEEGGCELRVKFSRSADAPAYQQGQNQLYNELNLGRREEYDVLDKRRGRDPEMGGKPRRKNPQEGLYNELQKDKMAEAYSEIGMKGERRRGKGHDGLYQGLSTATKDTYDALHMQALPPR	6.67	1.29%	–	–
P08A02 anti-CD70 scFv-Fc fusion (Fc fusion, scFv-Fc expressed in Expi293; not shown: part of the hinge and Fc from a modified human IgG2) EVQLVQSGAEVKKPGESLKISCKGSGYTFTNYWIAWVRQMPGKGLEWMGIIYPDGSDTRYSPSFQGQVTISADKSISTAYLQWSSLKASDTAMYYCARDITSWYYGEPAFDIWGQGTLVTVSSGGGGSGGGGSGGGGSGGGGSELQSVLTQPPSASGTPGQRVTISCSGSSSNIGSNYVYWYQQLPGTAPKLLIYRNNQRPSGVPDRFSGSKSGTSASLAISGLRSEDEADYYCATWDDSLGSPVFGTGTKLTVL	–	–	1200 nM	–
